Source: article PMC2715225 (Nucleic Acids Research, 2009)

Target: T1, His6-tagged human PSF (human, UniProt P23246 1-707)
T1 sequence (looked up): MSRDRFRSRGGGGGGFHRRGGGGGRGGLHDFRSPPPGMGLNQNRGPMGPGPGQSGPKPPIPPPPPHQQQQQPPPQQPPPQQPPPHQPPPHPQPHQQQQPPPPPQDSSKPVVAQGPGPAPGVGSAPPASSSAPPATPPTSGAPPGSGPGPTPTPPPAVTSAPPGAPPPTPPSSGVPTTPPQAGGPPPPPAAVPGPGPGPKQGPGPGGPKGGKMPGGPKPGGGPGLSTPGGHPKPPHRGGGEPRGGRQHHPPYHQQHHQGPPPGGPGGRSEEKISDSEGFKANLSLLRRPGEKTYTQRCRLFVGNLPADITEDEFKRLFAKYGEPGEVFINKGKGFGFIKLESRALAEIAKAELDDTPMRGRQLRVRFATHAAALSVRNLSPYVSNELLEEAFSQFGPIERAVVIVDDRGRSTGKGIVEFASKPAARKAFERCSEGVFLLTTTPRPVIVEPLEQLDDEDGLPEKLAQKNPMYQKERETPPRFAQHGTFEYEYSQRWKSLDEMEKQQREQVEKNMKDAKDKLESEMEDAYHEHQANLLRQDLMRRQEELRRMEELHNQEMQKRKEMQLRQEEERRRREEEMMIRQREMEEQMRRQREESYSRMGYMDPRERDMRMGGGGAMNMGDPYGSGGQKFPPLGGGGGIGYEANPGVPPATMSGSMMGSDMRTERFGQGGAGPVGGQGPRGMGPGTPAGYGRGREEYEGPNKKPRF
Test: pull-down

stoichiometry N: ~1 PSF:RAD51
B1: Human RAD51 without His6 tag (natural protein, UniProt Q06609 1-339, looked up)
chain: MAMQMQLEANADTSVEEESFGPQPISRLEQCGINANDVKKLEEAGFHTVEAVAYAPKKELINIKGISEAKADKILAEAAKLVPMGFTTATEFHQRRSEIIQITTGSKELDKLLQGGIETGSITEMFGEFRTGKTQICHTLAVTCQLPIDRGGGEGKAMYIDTEGTFRPERLLAVAERYGLSGSDVLDNVAYARAFNTDHQTQLLYQASAMMVESRYALLIVDSATALYRTDYSGRGELSARQMHLARFLRMLLRLADEFGVAVVITNQVVAQVDGAAMFAADPKKPIGGNIIAHASTTRLYLRKGRGETRICKIYDSPCLPEAEAMFAINADGVGDAKD
